The results in this text go back to IntAct's records for PubMed 21115843.

The target of the assay is notc1_mouse Notch1 (UniProt Q01705).

“Presenilin-1 (Homo sapiens) (from UniProt P49768) D385A”: the “effect of a mutation on the interaction” value is “disrupting interaction”.
